US10414796

How the values were obtained:
[1] = biological target: heterologous livipeptin fraction 2.2HET (HPLC fraction at 2.2 minutes from E. coli transformed with pALVP)
[2] = biological target: heterologous livipeptin fraction 4.2HET (HPLC fraction at 4.2 minutes from E. coli transformed with pALVP)
[3] = biological target: T1, heterologous livipeptin fraction 4.4HET (HPLC fraction at 4.4 minutes from E. coli transformed with pALVP)
T1 chain: FR

B1: papain (protein)
chain: IPEYVDWRQKGAVTPVKNQGSCGSCWAFSAVVTIEGIIKIRTGNLNEYSEQELLDCDRRSYGCNGGYPWSALQLVAQYGIHYRNTYPYEGVQRYCRSREKGPYAAKTDGVRQVQPYNEGALLYSIANQPVSVVLEAAGKDFQLYRGGIFVGPCGNKVDHAVAAVGYGPNYILIKNSWGTGWGENGYIRIKRGTGNSYGVCGLYTSSFYPVKN
anti-proteolytic activity (enzymatic assay) [1]: The anti-proteolytic activity of fractions 2.2, 4.2 and 4.4HET was confirmed through the enzymatic assay described previously, resulting active against papain | anti-proteolytic activity (enzymatic assay) [2]: The anti-proteolytic activity of fractions 2.2, 4.2 and 4.4HET was confirmed through the enzymatic assay described previously, resulting active against papain | anti-proteolytic activity (enzymatic assay) [3]: The anti-proteolytic activity of fractions 2.2, 4.2 and 4.4HET was confirmed through the enzymatic assay described previously, resulting active against papain
